Laboratory results as given in patent US20060105414.

T1: GST-IκBα (1-54), regulatory domain of IκBα, P25963
T1 chain: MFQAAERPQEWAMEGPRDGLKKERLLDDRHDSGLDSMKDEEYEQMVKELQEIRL

T2: GST-NF-κB2 (754-900) (p100C), C terminal regulatory domain of NF-κB2, Q00653
T2 chain: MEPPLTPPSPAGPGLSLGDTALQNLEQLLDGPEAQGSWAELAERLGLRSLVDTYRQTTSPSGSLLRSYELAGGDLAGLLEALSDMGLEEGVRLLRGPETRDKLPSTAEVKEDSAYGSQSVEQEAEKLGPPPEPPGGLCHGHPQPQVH

B1: IKKβ, recombinant, chromatographically pure, produced in Sf9 cells using baculoviruses (protein)
chain: MSWSPSLTTQTCGAWEMKERLGTGGFGNVIRWHNQETGEQIAIKQCRQELSPRNRERWCLEIQIMRRLTHPNVVAARDVPEGMQNLAPNDLPLLAMEYCQGGDLRKYLNQFENCCGLREGAILTLLSDIASALRYLHENRIIHRDLKPENIVLQQGEQRLIHKIIDLGYAKELDQGSLCTSFVGTLQYLAPELLEQQKYTVTVDYWSFGTLAFECITGFRPFLPNWQPVQWHSKVRQKSEVDIVVSEDLNGTVKFSSSLPYPNNLNSVLAERLEKWLQLMLMWHPRQRGTDPTYGPNGCFKALDDILNLKLVHILNMVTGTIHTYPVTEDESLQSLKARIQQDTGIPEEDQELLQEAGLALIPDKPATQCISDGKLNEGHTLDMDLVFLFDNSKITYETQISPRPQPESVSCILQEPKRNLAFFQLRKVWGQVWHSIQTLKEDCNRLQQGQRAAMMNLLRNNSCLSKMKNSMASMSQQLKAKLDFFKTSIQIDLEKYSEQTEFGITSDKLLLAWREMEQAVELCGRENEVKLLVERMMALQTDIVDLQRSPMGRKQGGTLDDLEEQARELYRRLREKPRDQRTEGDSQEMVRLLLQAIQSFEKKVRVIYTQLSKTVVCKQKALELLPKVEEVVSLMNEDEKTVVRLQEKRQKELWNLLKIACSKVRGPVSGSPDSMNASRLSQPGQLMSQPSTASNSLPEPAKKSEELVAEAHNLCTLLENAIQDTVREQDQSFTALDWSWLQTEEEEHSCLEQAS
B2: NF-κB inducing kinase (NIK), recombinant, immunopurified, produced in Sf9 cells using baculoviruses (protein)
chain: MAVMEMACPGAPGSAVGQQKELPKAKEKTPPLGKKQSSVYKLEAVEKSPVFCGKWEILNDVITKGTAKEGSEAGPAAISIIAQAECENSQEFSPTFSERIFIAGSKQYSQSESLDQIPNNVAHATEGKMARVCWKGKRRSKARKKRKKKSSKSLAHAGVALAKPLPRTPEQESCTIPVQEDESPLGAPYVRNTPQFTKPLKEPGLGQLCFKQLGEGLRPALPRSELHKLISPLQCLNHVWKLHHPQDGGPLPLPTHPFPYSRLPHPFPFHPLQPWKPHPLESFLGKLACVDSQKPLPDPHLSKLACVDSPKPLPGPHLEPSCLSRGAHEKFSVEEYLVHALQGSVSSGQAHSLTSLAKTWAARGSRSREPSPKTEDNEGVLLTEKLKPVDYEYREEVHWATHQLRLGRGSFGEVHRMEDKQTGFQCAVKKVRLEVFRAEELMACAGLTSPRIVPLYGAVREGPWVNIFMELLEGGSLGQLVKEQGCLPEDRALYYLGQALEGLEYLHSRRILHGDVKADNVLLSSDGSHAALCDFGHAVCLQPDGLGKSLLTGDYIPGTETHMAPEVVLGRSCDAKVDVWSSCCMMLHMLNGCHPWTQFFRGPLCLKIASEPPPVREIPPSCAPLTAQAIQEGLRKEPIHRVSAAELGGKVNRALQQVGGLKSPWRGEYKEPRHPPPNQANYHQTLHAQPRELSPRAPGPRPAEETTGRAPKLQPPLPPEPPEPNKSPPLTLSKEESGMWEPLPLSSLEPAPARNPSSPERKATVPEQELQQLEIELFLNSLSQPFSLEEQEQILSCLSIDSLSLSDDSEKNPSKASQSSRDTLSSGVHSWSSQAEARSSSWNMVLARGRPTDTPSYFNGVKVQIQSLNGEHLHIREFHRVKVGDIATGISSQIPAAAFSLVTKDGQPVRYDMEVPDSGIDLQCTLAPDGSFAWSWRVKHGQLENRP
B3: IκB kinase α (IKKα), recombinant, chromatographically pure, produced in Sf9 cells using baculoviruses (protein)
chain: MERPPGLRPGAGGPWEMRERLGTGGFGNVCLYQHRELDLKIAIKSCRLELSTKNRERWCHEIQIMKKLNHANVVKACDVPEELNILIHDVPLLAMEYCSGGDLRKLLNKPENCCGLKESQILSLLSDIGSGIRYLHENKIIHRDLKPENIVLQDVGGKIIHKIIDLGYAKDVDQGSLCTSFVGTLQYLAPELFENKPYTATVDYWSFGTMVFECIAGYRPFLHHLQPFTWHEKIKKKDPKCIFACEEMSGEVRFSSHLPQPNSLCSLIVEPMENWLQLMLNWDPQQRGGPVDLTLKQPRCFVLMDHILNLKIVHILNMTSAKIISFLLPPDESLHSLQSRIERETGINTGSQELLSETGISLDPRKPASQCVLDGVRGCDSYMVYLFDKSKTVYEGPFASRSLSDCVNYIVQDSKIQLPIIQLRKVWAEAVHYVSGLKEDYSRLFQGQRAAMLSLLRYNANLTKMKNTLISASQQLKAKLEFFHKSIQLDLERYSEQMTYGISSEKMLKAWKEMEEKAIHYAEVGVIGYLEDQIMSLHAEIMELQKSPYGRRQGDLMESLEQRAIDLYKQLKHRPSDHSYSDSTEMVKIIVHTVQSQDRVLKELFGHLSKLLGCKQKIIDLLPKVEVALSNIKEADNTVMFMQGKRQKEIWHLLKIACTQSSARSLVGSSLEGAVTPQTSAWLPPTSAEHDHSLSCVVTPQDGETSAQMIEENLNCLGHLSTIIHEANEEQGNSMMNLDWSWLTE

What was measured:
[1] = biological target: T1, GST-IκBα (1-54), regulatory domain of …
[2] = biological target: T2, GST-NF-κB2 (754-900) (p100C), C …

| Protein | phosphorylation of GST-IκBα (1-54) in an in vitro kinase assay [1] | phosphorylation of the NF-κB2 C-terminal regulatory domain in vitro [2] | phosphorylation of GST-NF-κB2 (754-900) (p100C) in an in vitro kinase assay [2] |
| --- | --- | --- | --- |
| B1 | the regulatory domain of Iκ Bα was phosphorylated more efficiently by IKKβ than by IKKα |  |  |
| B2 | not at all by NIK | both NIK and IKKα phosphorylate the C-terminal regulatory domain of NF-κB2 |  |
| B3 | the regulatory domain of Iκ Bα was phosphorylated more efficiently by IKKβ than by IKKα | IKK is a more effective NF-B2 C-terminal kinase than NIK | the C terminal regulatory domain of NF-κB2 was phosphorylated most efficiently by IKKα |
